Assay results reported in publication PMC4176334.

Legend:
[1] = target: T1, M. tuberculosis RNAP core;SigJ (Mycobacterium tuberculosis;Mycobacterium tuberculosis H37Rv?) (UniProt P9WGZ1+P9WGY9+P9WGY7+P9WGY5+L0TCG5); assay: KMnO4 footprinting
[2] = target: T2, M. tuberculosis RNAP core;SigJ;RbpA (Mycobacterium tuberculosis;Mycobacterium tuberculosis H37Rv?;Mycobacterium tuberculosis) (UniProt P9WGZ1+P9WGY9+P9WGY7+P9WGY5+L0TCG5+P9WHJ5); assay: KMnO4 footprinting
[3] = target: T1, M. tuberculosis RNAP core;SigJ (Mycobacterium tuberculosis;Mycobacterium tuberculosis H37Rv?); assay: DNase I footprinting
[4] = target: T2, M. tuberculosis RNAP core;SigJ;RbpA (Mycobacterium tuberculosis;Mycobacterium tuberculosis H37Rv?;Mycobacterium tuberculosis); assay: DNase I footprinting
[5] = target: M. tuberculosis RNAP core;SigA (Mycobacterium tuberculosis;Mycobacterium tuberculosis) (UniProt P9WGZ1+P9WGY9+P9WGY7+P9WGY5+P9WGI1); assay: EMSA
[6] = target: M. tuberculosis RNAP core;SigA;RbpA (Mycobacterium tuberculosis;Mycobacterium tuberculosis;Mycobacterium tuberculosis) (UniProt P9WGZ1+P9WGY9+P9WGY7+P9WGY5+P9WGI1+P9WHJ5); assay: EMSA

Measured: binding

GCCCTCCCGCCGACCCATGCTGGAATTCATAACATCAAGGACGAGACAGCCCCGCCGAATGTGACAGCAACCGGCGATTTCAGCGCTCGGCGC (double strand) [sigIP promoter]
binds: [1] | [2] | [3] | [4]

TTGAGTTCTCAAACAACACGCTTGCTTGTTTCCGCCCGCTTCGGGGCAACCCTGCCAGTCTAATACAAATCCGGCAATGGAGTCAAGACCAGGTTCGGTCATCCATAGATATCCATAGGTGACCGTCGCCTAACAGCATACCCGTTCGAT (double strand) [rrnAP3 promoter]
binds: [5] | [6]
